Source: the supplement of paper PMC9732359
± gives the uncertainty stated by the source.

Experiment: protein stability index of a GFP-peptide fusion (yeast GPS) (PSI 1-4); higher = more stable; sorted into four equal gates, so the index is relative within each strain
How it was run: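 Each library plasmid carries Cherry plus GFP with a tiled 17-residue yeast protein peptide fused downstream, and the pooled library was carried in yeast. Mid-log cultures in leucine-free medium were sorted into four equal gates by GFP/Cherry ratio. Reads from Illumina sequencing of PCR-amplified plasmids from each gate were assigned to strains by barcodes. Per peptide, the protein stability index was computed as the summed products of gate read frequency and gate number.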

| Sequence | protein stability index (doa10∆) | protein stability index (pdr5∆) | protein stability index (san1∆) | protein stability index (ubr1∆) |
| --- | --- | --- | --- | --- |
| TEVERAKSLLKLQLGQL [COR1] | 1.42 ± 0.042 | 1.31 ± 0.048 | 1.36 ± 0.065 | 1.37 ± 0.037 |
| TFANPNRTFTDPPFRIE [TAF14] | 2.35 ± 0.078 | 2.76 ± 0.075 | 2.7 ± 0.094 | 2.27 ± 0.039 |
| TFDLTPEDAQLLLAANT [RPS0A] | 2.28 ± 0.054 | 1.88 ± 0.049 | 2.31 ± 0.088 | 2.45 ± 0.053 |
| TFIDKERHQKQLNEKLV [YCS4] | 2.62 ± 0.13 | 2.6 ± 0.16 | 2.81 ± 0.078 | 2.65 ± 0.093 |
| TFLKYFGWLLSDNSVSV [IRR1] | 2.67 ± 0.14 | 2.4 ± 0.11 | 2.24 ± 0.097 | 2.66 ± 0.11 |
| TFRRRNPYNTRSNKIKV [RPL34A] | 1.43 ± 0.04 | 1.81 ± 0.045 | 1.67 ± 0.066 | 1.9 ± 0.04 |
| TFTIKEFVSYYYAHSIP [SNU114] | 1.88 ± 0.039 | 1.77 ± 0.045 | 2.25 ± 0.055 | 1.88 ± 0.052 |
| TGAYIANRVTDKLTRVH [PRE3] | 1.57 ± 0.068 | 1.76 ± 0.059 | 1.59 ± 0.083 | 1.54 ± 0.056 |
| TGISQKSMSILNSFVND [HTB1] | 2.96 ± 0.06 | 2.94 ± 0.074 | 2.6 ± 0.075 | 2.67 ± 0.087 |
| TGSNDRCIGDSDNVSFE [YMR129W/POM152] | 3.19 ± 0.066 | 2.73 ± 0.068 | 2.5 ± 0.077 | 3.09 ± 0.048 |
| THDGRTIRYPDPNIKVN [RPS4A] | 1.52 ± 0.13 |  |  |  |
| THTEQNNPPKPQKPVPL [SNF2] | 2.88 ± 0.08 | 3.34 ± 0.094 | 3.12 ± 0.049 | 3.15 ± 0.057 |
| THTNLERDEQKRAEKKA [SNF2] | 3.35 ± 0.099 | 3.45 ± 0.11 | 2.77 ± 0.12 | 3.23 ± 0.059 |
| TIANSIILHFANFGEIL [YMR153W/NUP53] | 2.15 ± 0.055 | 2.38 ± 0.054 | 2.23 ± 0.062 | 2.27 ± 0.062 |
| TIDEQSQISPEKQTPNK [RPN1] | 3.24 ± 0.17 | 3.57 ± 0.15 | 3.28 ± 0.12 | 3.22 ± 0.056 |
| TIEKDKMKIQETISKLN [SMC2] | 1.71 ± 0.058 | 1.69 ± 0.044 | 1.94 ± 0.12 | 1.53 ± 0.038 |
| TIEQSPRMIELMEFLCV [ECM29] |  |  | 3.11 ± 0.14 | 3.25 ± 0.13 |
| TIERSLIEEEVEQDEGQ [YCS4] | 3.36 ± 0.24 | 3.27 ± 0.17 | 3.28 ± 0.084 | 3.5 ± 0.17 |
| TIKDLVGGKSTVQNEIL [FAS2] | 3.03 ± 0.073 | 2.92 ± 0.1 | 2.21 ± 0.1 | 3.24 ± 0.11 |
| TISKESTPDQRKRVYNI [ESC2] | 2.92 ± 0.15 | 3.16 ± 0.24 | 3.11 ± 0.17 | 3.01 ± 0.099 |
| TITIKSYHLWPSFTDEQ [PRP8] | 2.32 ± 0.057 | 2.81 ± 0.061 | 2.41 ± 0.073 | 2.51 ± 0.047 |
| TIVGVKFNNGVVIAADT [PUP1] | 1.43 ± 0.072 | 2.55 ± 0.14 |  | 2.55 ± 0.17 |
| TKAVEFSMGHIRSSSVS [MED4] | 3.26 ± 0.12 | 3.38 ± 0.093 | 3.18 ± 0.078 | 2.99 ± 0.078 |
| TKEMDEVEEDDEDDDQP [SWI3] | 3.39 ± 0.12 | 3.49 ± 0.068 | 3.48 ± 0.056 | 3.27 ± 0.066 |
| TKFNHNKEKSNSPTSFF [YOR098C/NUP1] | 2.78 ± 0.069 | 2.85 ± 0.066 | 2.66 ± 0.048 | 2.53 ± 0.051 |
| TKFSNPAIPPVIDLEKI [BRR2] | 2.57 ± 0.068 | 2.75 ± 0.068 | 2.66 ± 0.063 | 2.65 ± 0.052 |
| TKIDMPIKNRKNDTHYL [BRN1] | 3.04 ± 0.07 | 3.05 ± 0.075 | 2.93 ± 0.055 | 2.94 ± 0.053 |
| TKIKDAEEDSLLSGEDL [YJL039C/NUP192] | 3.35 ± 0.16 | 3.45 ± 0.086 | 3.14 ± 0.16 | 3.38 ± 0.12 |
